According to patent US20200392227A1 (LYVGEN BIOPHARMA, published 2020):
Residue numbers refer to the chain shown, from its start. Blank lines part the entries; values can stand above or below the binder they belong to.

Assays:
[1] = target: T1, human FcRI protein (MednaBio, E1031) (human, UniProt P12314 16-288, limits assumed); experiment: BLI
T1 construct: Bought; loaded on anti-penta-HIS biosensors; also called FcγRI
Experimental: (§1) These IgG mutants were tested for binding to a panel of human Fc receptors (FcRs), including FcRn, using the Octet Red96 System (ForteBio, Model #Red96). Human FcR proteins were purchased commercially (FcRn, MednaBio, E1032; FcRI, MednaBio, E1031; FcRIIA, MednaBio, E1033; FcRIIB/C, MednaBio, E1034; FcRIIIA-F158, MednaBio, E1036; FcRIIIA-V158, MednaBio, E1035; FcRIIIB, MednaBio, E1037). All Fey receptor assays were performed at pH 7.2; all FcRn assays were performed at pH 6. The Fey receptors were loaded onto anti-penta-HIS1K (ForteBio, Cat #18-5122) biosensors at a concentration of 20 μg/mL. The loaded biosensors was then be dipped into an 8-point 1:3 dilution series of the test IgG molecules (including controls and the mutants described herein) in PBS with 0.1% BSA, 0.02% Tween-20 (pH 7.2) at a starting concentration of 300 nM. Kinetic analysis was performed using a 1:1 binding model and global fitting.

[2] = target: T2, human FcRIIB/C protein (MednaBio, E1034) (human, UniProt P31994 43-217, limits assumed); experiment: BLI
T2 construct: Bought as FcRIIB/C; also called FcγRIIB; CD32B
T2 sequence (looked up): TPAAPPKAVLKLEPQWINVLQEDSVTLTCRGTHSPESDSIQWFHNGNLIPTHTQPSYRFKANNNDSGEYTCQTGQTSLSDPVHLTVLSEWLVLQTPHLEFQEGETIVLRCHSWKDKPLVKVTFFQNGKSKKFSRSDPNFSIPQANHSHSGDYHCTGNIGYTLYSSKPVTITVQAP
Experimental: as §1

[3] = target: T3, human FcRIIIA-F158 protein (MednaBio, E1036) (human, UniProt P08637 17-208); experiment: BLI
T3 construct: Bought; also called FcγRIIIA(F)
T3 sequence (P08637 17-208 limits assumed): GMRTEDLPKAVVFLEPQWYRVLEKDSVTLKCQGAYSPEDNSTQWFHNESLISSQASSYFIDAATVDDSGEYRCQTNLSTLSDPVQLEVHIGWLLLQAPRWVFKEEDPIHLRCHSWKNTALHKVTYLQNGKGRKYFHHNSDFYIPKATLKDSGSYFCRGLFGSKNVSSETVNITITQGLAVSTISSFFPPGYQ
Experimental: as §1

[4] = target: T4, human FcRn protein (MednaBio, E1032) (human, UniProt P55899 24-297; P61769 21-119); experiment: BLI
T4 construct: Bought; assays at pH 6
Experimental: as §1

[5] = target: T5, human FcRIIA protein (MednaBio, E1033) (human, UniProt P12318 34-218, limits assumed); experiment: BLI
T5 construct: Bought; also called FcγRIIA
T5 sequence (looked up): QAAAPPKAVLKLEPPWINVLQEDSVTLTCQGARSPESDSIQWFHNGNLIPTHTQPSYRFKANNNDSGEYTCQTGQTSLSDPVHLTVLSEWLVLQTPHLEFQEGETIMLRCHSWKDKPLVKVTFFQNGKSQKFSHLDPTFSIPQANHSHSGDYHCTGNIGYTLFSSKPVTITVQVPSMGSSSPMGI
Experimental: as §1

[6] = target: T6, human FcRIIIA-V158 protein (MednaBio, E1035) (human, UniProt P08637 17-208); experiment: BLI
T6 construct: Bought; also called FcγRIIIA(V); FcgRIIIA(V)
T6 sequence (P08637 17-208 F176V): as the sequence (P08637 17-208 limits assumed) above, with F160V counted along it
Experimental: as §1

[7] = target: T7, human FcRIIIB protein (MednaBio, E1037) (human, UniProt O75015 17-200); experiment: BLI
T7 construct: Bought; also called FcγRIIIB; FcgRIIIB
T7 sequence (O75015 17-200 limits assumed): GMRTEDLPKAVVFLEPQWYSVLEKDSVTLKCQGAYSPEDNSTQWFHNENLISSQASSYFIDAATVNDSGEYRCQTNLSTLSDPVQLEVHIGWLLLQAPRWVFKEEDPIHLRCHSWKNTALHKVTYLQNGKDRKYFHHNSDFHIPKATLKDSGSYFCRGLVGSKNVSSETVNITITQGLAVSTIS
Experimental: as §1

[8] = target: T8, human FcγRIIB expressed on CHO cells (human, UniProt P31994 43-310); experiment: FACS, CHO cells expressing FcγRIIB
T8 construct: whole, on cells; also called CD32B
T8 sequence (looked up): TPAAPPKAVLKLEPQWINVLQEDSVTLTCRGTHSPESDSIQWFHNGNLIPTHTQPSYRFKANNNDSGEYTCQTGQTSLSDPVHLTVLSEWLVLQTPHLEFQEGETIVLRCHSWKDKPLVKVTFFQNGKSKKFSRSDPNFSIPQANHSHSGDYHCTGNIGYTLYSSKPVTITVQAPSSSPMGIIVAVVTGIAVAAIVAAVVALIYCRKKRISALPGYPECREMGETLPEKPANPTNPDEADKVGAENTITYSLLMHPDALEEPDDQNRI
Experimental: (§2) For FACS analysis of the IgG mutants' binding to different FcγRs, FcγR overexpressing CHO cells were harvested using trypsin-EDTA and were suspended in cold staining buffer (3% BSA in PBS). Test IgG mutants, which were diluted in staining buffer, were added into the cells. The mixture was incubated 4° C. for 2 hours, and then washed twice with cold staining buffer and re-suspended in PE-labeled anti-human IgG followed by incubation at 4° C. for 2 hours. The mixture was washed twice with staining buffer and re-suspended in 2% PFA in PBS for FACS.

[9] = target: T9, human FcγRIIC expressed on CHO cells (human, UniProt P31995 43-323); experiment: FACS, CHO cells expressing FcγRIIC
T9 construct: whole, on cells
T9 sequence (looked up): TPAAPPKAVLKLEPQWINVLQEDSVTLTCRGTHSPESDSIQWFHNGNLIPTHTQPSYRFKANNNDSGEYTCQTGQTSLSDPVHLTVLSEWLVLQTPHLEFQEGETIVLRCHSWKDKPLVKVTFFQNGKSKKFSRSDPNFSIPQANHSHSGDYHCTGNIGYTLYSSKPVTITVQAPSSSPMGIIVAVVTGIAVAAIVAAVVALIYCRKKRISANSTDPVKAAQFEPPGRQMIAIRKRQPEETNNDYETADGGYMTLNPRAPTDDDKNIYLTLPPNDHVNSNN

[10] = target: T10, human FcγRIIA(H131) expressed on CHO cells (human, UniProt P12318 34-317); experiment: FACS, CHO cells expressing FcγRIIA(H131)
T10 construct: whole, on cells
T10 sequence (looked up): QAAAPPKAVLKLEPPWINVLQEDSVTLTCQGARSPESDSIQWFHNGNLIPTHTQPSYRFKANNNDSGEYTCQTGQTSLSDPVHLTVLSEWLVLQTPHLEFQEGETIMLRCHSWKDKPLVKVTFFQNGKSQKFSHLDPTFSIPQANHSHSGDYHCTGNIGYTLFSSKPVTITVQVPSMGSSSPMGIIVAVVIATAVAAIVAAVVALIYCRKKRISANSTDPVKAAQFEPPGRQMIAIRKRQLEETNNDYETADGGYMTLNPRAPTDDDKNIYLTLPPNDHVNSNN
Experimental: as §2

[11] = target: T11, human FcγRI expressed on CHO cells (human, UniProt P12314 16-374); experiment: FACS, CHO cells expressing FcγRI
T11 construct: whole, on cells
T11 sequence (P12314 16-374): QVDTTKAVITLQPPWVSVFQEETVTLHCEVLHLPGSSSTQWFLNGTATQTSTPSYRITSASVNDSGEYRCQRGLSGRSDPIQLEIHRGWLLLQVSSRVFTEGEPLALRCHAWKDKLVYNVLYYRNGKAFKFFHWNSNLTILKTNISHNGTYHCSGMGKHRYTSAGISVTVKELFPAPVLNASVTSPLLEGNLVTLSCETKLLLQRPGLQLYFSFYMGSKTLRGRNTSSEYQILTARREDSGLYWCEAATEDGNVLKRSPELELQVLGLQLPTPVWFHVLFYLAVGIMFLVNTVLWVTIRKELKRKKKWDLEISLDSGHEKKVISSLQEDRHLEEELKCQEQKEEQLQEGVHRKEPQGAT
Method in brief: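 Trypsin-harvested CHO cells overexpressing each FcγR were incubated 2 h at 4 °C with IgG mutants in 3% BSA/PBS. Bound IgG was detected with PE-labeled anti-human IgG (2 h, 4 °C), then cells were fixed in 2% PFA and analysed by flow cytometry.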

[12] = target: T12, human FcγRIIA(R131) expressed on CHO cells (human, UniProt P12318 34-317); experiment: FACS, CHO cells expressing FcγRIIA(R131)
T12 construct: whole, on cells
T12 sequence (looked up): T10 sequence (looked up) with H134R

T1 sequence (P12314 16-288 limits assumed): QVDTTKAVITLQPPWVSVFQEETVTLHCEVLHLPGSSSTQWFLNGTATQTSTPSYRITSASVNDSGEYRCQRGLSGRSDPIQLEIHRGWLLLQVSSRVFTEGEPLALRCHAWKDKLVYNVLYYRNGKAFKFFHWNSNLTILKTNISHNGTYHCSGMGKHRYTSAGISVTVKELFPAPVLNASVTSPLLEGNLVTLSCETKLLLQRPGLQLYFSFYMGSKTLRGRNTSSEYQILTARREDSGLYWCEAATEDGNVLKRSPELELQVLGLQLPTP

binding result [1]: no binding (tested: 300 nM) | binding result [2]: no binding (tested: 300 nM) | binding result [3]: no binding (tested: 300 nM) | Kd [4]: 13 nM | koff [4]: 0.0093 s⁻¹ | kon [4]: 710000 M⁻¹ s⁻¹ | binding result [5]: no binding (tested: 300 nM) | binding result [6]: no binding (tested: 300 nM) | binding result [7]: no binding (tested: 300 nM) | binding result [8]: no binding (tested: 10 ug/ml) | binding result [9]: no binding (tested: 10 ug/ml) | binding result [10]: no binding (tested: 10 ug/ml)
B1: anti-CD137 IgG1 with Fc variant G1m2 (antibody)
heavy: EVQLVQSGAEVKKPGESLRISCKGSGYSFSTYWISWVRQMPGKGLEWMGKIYPGDSYTNYSPSFQGQVTISADKSISTAYLQWSSLKASDTAMYYCARGYGIFDYWGQGTLVTVSSASTKGPSVFPLAPSSKSTSGGTAALGCLVKDYFPEPVTVSWNSGALTSGVHTFPAVLQSSGLYSLSSVVTVPSSSLGTQTYICNVNHKPSNTKVDKKVEPKSCDKTHTCPPCPAPELLGPSVFLFPPKPKDTLMISRTPEVTCVVVDVSHEDPEVKFNWYVDGVEVHNAKTKPREEQYNSTYRVVSVLTVLHQDWLNGKEYKCKVSNKALPAPIEKTISKAKGQPREPQVYTLPPSREEMTKNQVSLTCLVKGFYPSDIAVEWESNGQPENNYKTTPPVLDSDGSFFLYSKLTVDKSRWQQGNVFSCSVMHEALHNHYTQKSLSLSPGK
light: SYELTQPPSVSVSPGQTASITCSGDNIGDQYAHWYQQKPGQSPVLVIYQDKNRPSGIPERFSGSNSGNTATLTISGTQAMDEADYYCATYTGFGSLAVFGGGTKLTVLGQPKAAPSVTLFPPSSEELQANKATLVCLISDFYPGAVTVAWKADSSPVKAGVETTTPSKQSNNKYAASSYLSLTPEQWKSHRSYSCQVTHEGSTVEKTVAPTECS
notes: copies: 2 + 2

binding result [1]: no binding (tested: 300 nM) | binding result [2]: no binding (tested: 300 nM) | binding result [3]: no binding (tested: 300 nM) | Kd [4]: 5.5 nM | koff [4]: 0.00096 s⁻¹ | kon [4]: 170000 M⁻¹ s⁻¹ | binding result [5]: no binding (tested: 300 nM) | binding result [6]: no binding (tested: 300 nM) | binding result [11]: no binding (tested: 10 ug/ml) | binding result [8]: no binding (tested: 10 ug/ml) | binding result [12]: no binding (tested: 10 ug/ml) | binding result [9]: no binding (tested: 10 ug/ml) | binding result [10]: no binding (tested: 10 ug/ml)
B2: anti-CD137 IgG2 with Fc variant G2m1 (antibody)
heavy: EVQLVQSGAEVKKPGESLRISCKGSGYSFSTYWISWVRQMPGKGLEWMGKIYPGDSYTNYSPSFQGQVTISADKSISTAYLQWSSLKASDTAMYYCARGYGIFDYWGQGTLVTVSSASTKGPSVFPLAPCSRSTSESTAALGCLVKDYFPEPVTVSWNSGALTSGVHTFPAVLQSSGLYSLSSVVTVPSSNFGTQTYTCNVDHKPSNTKVDKTVERKCCVECPPCPAPPVASVFLFPPKPKDTLMISRTPEVTCVVVDVSHEDPEVQFNWYVDGVEVHNAKTKPREEQFNSTFRVVSVLTVVHQDWLNGKEYKCKVSNKGLPAPIEKTISKTKGQPREPQVYTLPPSREEMTKNQVSLTCLVKGFYPSDIAVEWESNGQPENNYKTTPPMLDSDGSFFLYSKLTVDKSRWQQGNVFSCSVMHEALHNHYTQKSLSLSPGK
light: B1 light
notes: copies: 2 + 2
